Test results as given in PMC9889334 (Nature Communications, 2022).

Target: the molecule itself
Assay: SEC-SAXS; purified complexes loaded at 2.55 (CBKP1P2), 0.72 (CBKP1) and 3 mg/ml (CBKP2) on a Bio-SEC3 column; 20 mM Tris pH 8.5, 300 mM NaCl, 5 mM 2-mercaptoethanol, 5% glycerol

B1: CBKP1, four-subunit PaKEOPS complex (PaCgi121/PaBud32/PaKae1/PaPcc1) (complex)
chain 1: MTPKFKNFKHDNSGQVETYLFEVISKYTMLEIKTKFGKLCIAKVKLASESIERALNLCNDNCQIVSAKCHEEVIFATILAIKAFSSGRNTAKTIKGEILLRLAGVKQIKDAIKIIGARKGENLIIYFGVSDPCSSLKDFISSLGLREEPLKPCDEDEVKRGFERAAIIEAL
chain 2: MKLIKQGAEAKIYLAEFSELYFDYPIKVIVKERIKKRYRIPEIDLKLRKERTIREARILRRAKEFGVNVPYVFEVDTKNMIIVMEYIEGERLKELLEKLPMEERLKVCREVGRQIGKLHEAGIVHGDLTTSNMILREGKVYFIDFGLAEFDDTIEAQGVDLHLLKRAMESTHYKWFERGFEEVLKGYIEIRGEDKGREIREKIREIELRGRYRERSWITQ
chain 3: MLALGIEGTAHTLGIGIVSEDKVLANVFDTLTTEKGGIHPKEAAEHHARLMKPLLRKALSEAGVSLDDIDVIAFSQGPGLGPALRVVATAARALAVKYRKPIVGVNHCIAHVEITKMFGVKDPVGLYVSGGNTQVLALEGGRYRVFGETLDIGIGNAIDVFARELGLGFPGGPKVEKLAEKGEKYIELPYAVKGMDLSFSGLLTEAIRKYRSGKYRVEDLAYSFQETAFAALVEVTERAVAHTEKDEVVLVGGVAANNRLREMLRIMTEDRGIKFFVPPYDLCRDNGAMIAYTGLRMYKAGISFRLEETIVKQKFRTDEVEIVW
chain 4: MKPKRVQGKIVIEFPSEDIAEVVYTSVLYEHVSVPYRRSRVNFRREGRRIVLEIEANDSSAMRGTVNSYLRWIKVALDVLNI
stoichiometry N: 2
